Assay results published in US20190040130A1 (Alector, published 2019).

Key:
[1] = molecular target: T1, human TREM2/DAP12 fusion protein in BW5147.G.1.4 NFAT-luciferase reporter cells (human, UniProt O43914 41-113, limits assumed); experiment: cell-based or functional assay
[2] = molecular target: T1, human TREM2/DAP12 fusion protein in …; experiment: cell-based or functional assay; remark: listed apart in the source

EC50 (read off the curve); NFAT:luciferase luminescence, BWZ reporter cells, plate bound IgG [1]: ~3 µg/mL
EC50 (read off the curve); NFAT:luciferase luminescence, BWZ reporter cells, soluble IgG [2]: ~0.8 µg/mL
B1: AL2p-31 msFc (antibody, V domains shown)
VH: QVQLVQSGAEVKKPGSSVKVSCKASGYAFSSQWMNWVRQAPGQGLEWMGRIYPGGGDTNYARKFQGRVTITADESTSTAYMELSSLRSEDTAVYYCARLLRNQPGESYAMDYWGQGTLVTVSS
VL: GVVMTQTPLSLSVTPGQPASISCRSSQSLVHSNGYTYLHWYLQKPGQSPQLLIYKVSNRRSGVPDRFSGSGSGTDFTLKISRVEAEDVGVYYCSQSTRVPYTFGQGTKLEIK
